From PMC10397247

Assays:
4H3015-AA = molecular target: T1, 4H3015-AA; experiment: two-hybrid library CCmax; settings: mean of both orientations;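 note: natural log of median RNA to DNA barcode read ratio; higher means stronger binding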
T1 chain: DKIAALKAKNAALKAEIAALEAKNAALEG

4H2124-AA = molecular target: T2, 4H2124-AA; experiment: two-hybrid library CCmax; settings: mean of both orientations;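 note: natural log of median RNA to DNA barcode read ratio; higher means stronger binding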
T2 chain: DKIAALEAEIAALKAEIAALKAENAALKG

4H_BCR = molecular target: T3, 4H_BCR; experiment: two-hybrid library CCmax; settings: mean of both orientations;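 note: natural log of median RNA to DNA barcode read ratio; higher means stronger binding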
T3 chain: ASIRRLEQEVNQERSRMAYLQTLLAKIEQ

4H249-AA = molecular target: T4, 4H249-AA; experiment: two-hybrid library CCmax; settings: mean of both orientations;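 note: natural log of median RNA to DNA barcode read ratio; higher means stronger binding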
T4 chain: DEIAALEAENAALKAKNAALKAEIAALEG

4H2330-AA = molecular target: T5, 4H2330-AA; experiment: two-hybrid library CCmax; settings: mean of both orientations;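 note: natural log of median RNA to DNA barcode read ratio; higher means stronger binding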
T5 chain: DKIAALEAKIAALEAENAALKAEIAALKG

4H3001-AA = molecular target: T6, 4H3001-AA; experiment: two-hybrid library CCmax; settings: mean of both orientations;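 note: natural log of median RNA to DNA barcode read ratio; higher means stronger binding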
T6 chain: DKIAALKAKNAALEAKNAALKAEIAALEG

4H2466-AA = molecular target: T7, 4H2466-AA; experiment: two-hybrid library CCmax; settings: mean of both orientations
T7 chain: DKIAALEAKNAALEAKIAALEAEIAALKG

4H452-AA = molecular target: T8, 4H452-AA; experiment: two-hybrid library CCmax; settings: mean of both orientations
T8 chain: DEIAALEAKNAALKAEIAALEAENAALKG

4H2732-AA = molecular target: T9, 4H2732-AA; experiment: two-hybrid library CCmax; settings: mean of both orientations
T9 chain: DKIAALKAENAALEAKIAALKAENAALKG

4H56-AA = molecular target: T10, 4H56-AA; experiment: two-hybrid library CCmax; settings: mean of both orientations
T10 chain: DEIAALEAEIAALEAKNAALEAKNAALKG

4H2592-AA = molecular target: T11, 4H2592-AA; experiment: two-hybrid library CCmax; settings: mean of both orientations
T11 chain: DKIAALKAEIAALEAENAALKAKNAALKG

4H2931-AA = molecular target: T12, 4H2931-AA; experiment: two-hybrid library CCmax; settings: mean of both orientations
T12 chain: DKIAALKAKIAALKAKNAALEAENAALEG

4H2165-AA = molecular target: T13, 4H2165-AA; experiment: two-hybrid library CCmax; settings: mean of both orientations
T13 chain: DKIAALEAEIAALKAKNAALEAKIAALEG

4H1821-AA = molecular target: T14, 4H1821-AA; experiment: two-hybrid library CCmax; settings: mean of both orientations
T14 chain: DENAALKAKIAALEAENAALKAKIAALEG

4H2253-AA = molecular target: T15, 4H2253-AA; experiment: two-hybrid library CCmax; settings: mean of both orientations
T15 chain: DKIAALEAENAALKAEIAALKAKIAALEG

4H406-AA = molecular target: T16, 4H406-AA; experiment: two-hybrid library CCmax; settings: mean of both orientations
T16 chain: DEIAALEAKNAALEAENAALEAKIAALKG

4H1930-AA = molecular target: T17, 4H1930-AA; experiment: two-hybrid library CCmax; settings: mean of both orientations
T17 chain: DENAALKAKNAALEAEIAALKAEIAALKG

4H2343-AA = molecular target: T18, 4H2343-AA; experiment: two-hybrid library CCmax; settings: mean of both orientations
T18 chain: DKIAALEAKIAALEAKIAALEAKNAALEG

4H_GCN4 = experiment: two-hybrid library CCmax
4H_GCN4, sequence (chain, as listed by the source): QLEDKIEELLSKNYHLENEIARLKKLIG

4H175-AA = molecular target: T19, 4H175-AA; experiment: two-hybrid library CCmax
T19 chain: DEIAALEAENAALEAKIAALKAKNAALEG

GCN2_T = experiment: two-hybrid library CCmax
4H_APH = molecular target: T20, 4H_APH; experiment: two-hybrid library CCmax
T20 chain: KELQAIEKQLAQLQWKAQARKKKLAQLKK

4H3073-AA = molecular target: T21, 4H3073-AA; experiment: two-hybrid library CCmax
T21 chain: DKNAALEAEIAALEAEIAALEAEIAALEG

4H3438-AA = molecular target: T22, 4H3438-AA; experiment: two-hybrid library CCmax; settings: mean of both orientations
T22 chain: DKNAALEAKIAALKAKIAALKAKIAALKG

4H347-AA = molecular target: T23, 4H347-AA; experiment: two-hybrid library CCmax
T23 chain: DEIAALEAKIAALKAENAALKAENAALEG

4H1828-AA = molecular target: T24, 4H1828-AA; experiment: two-hybrid library CCmax; settings: mean of both orientations
T24 chain: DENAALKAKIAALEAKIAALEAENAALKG

4H1765-AA = molecular target: T25, 4H1765-AA; experiment: two-hybrid library CCmax; settings: mean of both orientations
T25 chain: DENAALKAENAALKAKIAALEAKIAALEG

4H2774-AA = molecular target: T26, 4H2774-AA; experiment: two-hybrid library CCmax; settings: mean of both orientations
T26 chain: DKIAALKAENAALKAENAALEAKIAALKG

4H918-AA = molecular target: T27, 4H918-AA; experiment: two-hybrid library CCmax; settings: mean of both orientations
T27 chain: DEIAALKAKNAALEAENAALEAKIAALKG

4H2442-AA = molecular target: T28, 4H2442-AA; experiment: two-hybrid library CCmax
T28 chain: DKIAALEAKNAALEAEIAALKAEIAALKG

4H3354-AA = molecular target: T29, 4H3354-AA; experiment: two-hybrid library CCmax; settings: mean of both orientations
T29 chain: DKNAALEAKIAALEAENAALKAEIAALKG

4H967-AA = molecular target: T30, 4H967-AA; experiment: two-hybrid library CCmax; settings: mean of both orientations
T30 chain: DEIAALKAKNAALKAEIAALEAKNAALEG

4H4001-AA = molecular target: T31, 4H4001-AA; experiment: two-hybrid library CCmax; settings: mean of both orientations
T31 chain: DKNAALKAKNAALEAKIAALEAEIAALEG

4H953-AA = molecular target: T32, 4H953-AA; experiment: two-hybrid library CCmax; settings: mean of both orientations
T32 chain: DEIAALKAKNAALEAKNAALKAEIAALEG

4H797-AA = molecular target: T33, 4H797-AA; experiment: two-hybrid library CCmax; settings: mean of both orientations
T33 chain: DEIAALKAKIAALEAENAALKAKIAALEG

4H883-AA = molecular target: T34, 4H883-AA; experiment: two-hybrid library CCmax; settings: mean of both orientations
T34 chain: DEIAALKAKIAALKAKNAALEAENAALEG

4H3427-AA = molecular target: T35, 4H3427-AA; experiment: two-hybrid library CCmax; settings: mean of both orientations
T35 chain: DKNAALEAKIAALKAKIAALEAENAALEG

4H717-AA = molecular target: T36, 4H717-AA; experiment: two-hybrid library CCmax; settings: mean of both orientations
T36 chain: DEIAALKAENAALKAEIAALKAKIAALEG

4H3112-AA = molecular target: T37, 4H3112-AA; experiment: two-hybrid library CCmax; settings: mean of both orientations
T37 chain: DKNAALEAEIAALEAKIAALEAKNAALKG

4H3855-AA = molecular target: T38, 4H3855-AA; experiment: two-hybrid library CCmax; settings: mean of both orientations
T38 chain: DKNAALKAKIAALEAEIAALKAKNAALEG

4H3782-AA = molecular target: T39, 4H3782-AA; experiment: two-hybrid library CCmax; settings: mean of both orientations
T39 chain: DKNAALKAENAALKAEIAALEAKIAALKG

4H687-AA = molecular target: T40, 4H687-AA; experiment: two-hybrid library CCmax; settings: mean of both orientations
T40 chain: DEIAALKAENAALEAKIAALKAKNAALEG

4H568-AA = molecular target: T41, 4H568-AA; experiment: two-hybrid library CCmax; settings: mean of both orientations
T41 chain: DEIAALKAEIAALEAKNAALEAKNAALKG

P7SH = molecular target: T42, P7SH; experiment: two-hybrid library CCNG1
T42 chain: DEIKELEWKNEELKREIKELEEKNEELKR

P6SH = molecular target: T43, P6SH; experiment: two-hybrid library CCNG1
T43 chain: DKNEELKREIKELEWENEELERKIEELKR

P8SH = molecular target: T44, P8SH; experiment: two-hybrid library CCNG1
T44 chain: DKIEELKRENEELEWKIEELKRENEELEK

Question: For DEIAALEAENAALEAKIAALKAKNAALEG [4H175-AA], which interaction score (4H3015-AA) is on record?
Answer: Its interaction score is 2.21.

Question: And the interaction score (4H2124-AA)?
Answer: The interaction score was -1.39.

Question: What about the interaction score (4H_BCR) of the same binder?
Answer: Its interaction score is -2.06.

Question: What about the interaction score (4H249-AA) of the same binder?
Answer: Its interaction score is 0.000294.

Question: What about the interaction score (4H2330-AA) of the same binder?
Answer: Its interaction score is -1.68.

Question: What about the interaction score (4H3001-AA) of the same binder?
Answer: Its interaction score is -0.307.

Question: What about the interaction score (4H2466-AA) of the same binder?
Answer: Its interaction score is -1.58.

Question: And the interaction score (4H452-AA)?
Answer: Its interaction score is 0.385.

Question: What about the interaction score (4H2732-AA) of the same binder?
Answer: The interaction score was -0.776.

Question: And the interaction score (4H56-AA)?
Answer: The interaction score was -1.56.

Question: And the interaction score (4H2592-AA)?
Answer: Its interaction score is -1.32.

Question: And the interaction score (4H2931-AA)?
Answer: The interaction score was -1.11.

Question: And the interaction score (4H2165-AA)?
Answer: Its interaction score is -1.43.

Question: What about the interaction score (4H1821-AA) of the same binder?
Answer: The interaction score was -1.36.

Question: What about the interaction score (4H2253-AA) of the same binder?
Answer: Its interaction score is -0.981.

Question: And the interaction score (4H406-AA)?
Answer: The interaction score was -1.39.

Question: What about the interaction score (4H1930-AA) of the same binder?
Answer: The interaction score was -1.75.

Question: And the interaction score (4H2343-AA)?
Answer: The interaction score was -1.82.

Question: What about the interaction score (4H_GCN4) of the same binder?
Answer: The interaction score was -1.

Question: And the interaction score (4H175-AA)?
Answer: Its interaction score is -0.721.

Question: What about the interaction score (GCN2_T) of the same binder?
Answer: The interaction score was -0.991.

Question: What about the interaction score (4H_APH) of the same binder?
Answer: Its interaction score is -0.714.

Question: And the interaction score (4H3073-AA)?
Answer: Its interaction score is -2.69.

Question: And the interaction score (4H3438-AA)?
Answer: The interaction score was -0.317.

Question: And the interaction score (4H347-AA)?
Answer: The interaction score was -1.44.

Question: And the interaction score (4H1828-AA)?
Answer: Its interaction score is -1.69.

Question: And the interaction score (4H1765-AA)?
Answer: Its interaction score is -1.18.

Question: And the interaction score (4H2774-AA)?
Answer: The interaction score was -0.332.

Question: With DKIAALEAKNAALEAEIAALKAEIAALKG [4H2442-AA] as the binder, how does the interaction score (4H918-AA) read?
Answer: The interaction score was -1.29.

Question: And the interaction score (4H2442-AA)?
Answer: Its interaction score is 1.97.

Question: And the interaction score (4H3354-AA)?
Answer: The interaction score was -1.37.

Question: And the interaction score (4H967-AA)?
Answer: Its interaction score is -2.2.

Question: What about the interaction score (4H4001-AA) of the same binder?
Answer: Its interaction score is -2.06.

Question: And the interaction score (4H953-AA)?
Answer: The interaction score was -1.67.

Question: And the interaction score (4H797-AA)?
Answer: The interaction score was -1.52.

Question: What about the interaction score (4H883-AA) of the same binder?
Answer: The interaction score was -1.82.

Question: And the interaction score (4H3427-AA)?
Answer: Its interaction score is -1.52.

Question: What about the interaction score (4H717-AA) of the same binder?
Answer: The interaction score was -1.4.

Question: And the interaction score (4H3112-AA)?
Answer: Its interaction score is -1.4.

Question: And the interaction score (4H3855-AA)?
Answer: The interaction score was -1.56.

Question: What about the interaction score (4H3782-AA) of the same binder?
Answer: Its interaction score is -1.14.

Question: And the interaction score (4H687-AA)?
Answer: Its interaction score is -1.85.

Question: And the interaction score (4H568-AA)?
Answer: The interaction score was -1.38.

Question: For DKNEELKREIKELEWENEELERKIEELKR [P6SH], which interaction score (P7SH) is on record?
Answer: The interaction score was 0.762.

Question: And the interaction score (P6SH)?
Answer: Its interaction score is 0.574.

Question: What about the interaction score (P8SH) of the same binder?
Answer: The interaction score was 0.565.
